Reference: the RNAGym collection of RNA variant scans (doi:10.7554/elife.80360)

B1: HDV Ribozyme (parent)
chain: GGCCGGCAUGGUCCCAGCCUCCUCGCUGGCGCCGGCUGGGCAACAUUCCGAGGGGACCGUCCCCUCGGUAAUGGCGAAUGGGACCCA

Variants of: B1
Test: self-cleavage, relative activity (ratio to wild type); higher = more cleavage; co-transcriptional

Variant | self-cleavage
U20A C48U | 0
C13A G80U | 0.0654
G17U G53U | 0.42
U12G G68C | 0.914
G29U A42U | 0.102
A45G A51U | 0.944
G34A A77U | 0.0339
G11C A56G | 0.172
C36G A45G | 0.185
C30U G35A | 0.136
C3U A77G | 0.739
A45G C66U | 0.92
G31C A78C | 0.0997
C58A G67C | 0.886
C36G C61A | 0.116
U23A C84A | 0.944
G25C G50U | 0.0811
C30A A71U | 0.386
G11A C32A | 0.0231
U27G A77G | 0.723
U23C | 0.987
C26G G82A | 0.813
C4G G38C | 0
C15A C32U | 0.314

Variant | self-cleavage
C44A G82C | 0.0773
U27A A83G | 0.723
G35U C63G | 0.262
A8U A16U | 0.962
U65A G74U | 0.428
C21A U79C | 0.111
G35C G50C | 0.0923
C15U C18A | 0.0639
C26A U79G | 0.875
C21G C41G | 0.095
G38U C63A | 0.159
G1A C24G | 0.0702
G2A C24G | 0.0378
U37G C86U | 0.249
C49U C86U | 0.882
G34C C49A | 0.249
C19G C84A | 0.0898
G10C C62A | 0.919
G39A A70C | 0.277
G50C G82A | 0.364
G68A C84U | 0.872
C26U G76C | 0.87
C22U G74U | 0.0683
U37G C62A | 0.0594

Variant | self-cleavage
G54C C86G | 1.02
U27G C30U | 0.554
U46A C85U | 0.675
U69A | 0.977
G1C U46G | 0.119
G53A G76U | 1.11
G40U C63U | 0.866
G5C A77U | 0
C58A A87U | 1
G11A C26G | 0.99
C26G C75A | 0.266
C4G A45C | 0.0554
C30A C61U | 0.601
C22U A42U | 0.138
C24A G53A | 0.893
G39C G68C | 0.339
C49U U69A | 0.95
U46A C63A | 0.499
U47C G68U | 0.462
G10C U65C | 0.831
G10A G39A | 0.321
C22U G73A | 0.192
C26A G40A | 1.01
C7U U9A | 0.86

Variant | self-cleavage
U20C U69G | 0.0639
C33G U47G | 0.0723
C48G C49G | 0.906
G2C C84U | 0.0181
U60G G73U | 0.298
U23G G39C | 0.158
C3G G11U | 0.0683
A42U G81A | 0.0378
A45G U47G | 0.767
C32U C58U | 0.831
C13U U65A | 0.508
G73U G82A | 0.135
U37G U72C | 0.119
G1A G39A | 0.141
G10C G17U | 0.494
C44G G59A | 0.636
G1A U9A | 0.138
C48U U60C | 1.27
C4U G80A | 0.242
G38U A43C | 0.0811
C3U C21G | 0.0723
U46G A83G | 0.746
G10C G59U | 0.815
U12G C26U | 0.776

Variant | self-cleavage
G53U A56G | 1.03
C49G U65C | 0.675
G10U C36A | 0.067
G50A C57U | 1
C7A C18A | 0.0852
C21U G55A | 0.231
A16U G25C | 0.32
G2A G52C | 0.112
C24G A42G | 0.185
G10A C58U | 0.972
U69G | 0.981
U20A U47C | 0.0594
G2C A71C | 0.0723
G29A U69C | 0.131
G25C A43G | 0
G35C G39C | 0.119
U9A C84U | 0.749
U9A C66G | 1.1
C48U C63G | 0.542
C19G U27A | 0.0615
A16C C86A | 0.692
G17A G40U | 0.562
C13A A77U | 0.0739
U27G C61A | 0.759

Variant | self-cleavage
G11A G35A | 0.272
C44A U65G | 0.85
U12A G34C | 0.208
C32G U65A | 0.0545
C18U A87G | 0.733
G11C G50U | 0.54
G50U G53C | 0.437
C41U C66G | 0.926
C62G G76U | 1.03
G53C C64G | 0.268
U12G G74U | 0.453
G2A U69A | 0.22
U47C C66A | 0.875
C48G A77U | 0.748
C57U G82A | 0.269
C13U C30G | 0.198
C32U U47C | 0.764
A8G U47G | 0.782
G5C C33G | 1.43
C30G U60A | 0.154
C36G G38U | 0.199
G38C C63A | 0.332
C22G G54U | 0.0841
G11C C15G | 0.131

Variant | self-cleavage
C32U G73A | 0.364
C49G G54U | 0.519
C49G C63G | 0.475
C19A C22A | 0.112
C14G C62G | 0.0831
C15U G34A | 0.173
U12C C44U | 0.0692
G82C A83G | 0.233
G2C C63G | 0.0314
G2U A43G | 0.0205
G59A C85U | 0.796
G10A A56C | 0.78
G53A U60C | 0.935
G1U C22G | 0.214
C3A C85A | 0.646
G11A C66A | 0.308
A71G G74C | 0.383
C22G G40C | 0.0665
G5U U9G | 0.554
G53U A83U | 0.609
C58G C61G | 0.88
C18G C58U | 0.0978
C62U G76C | 0.941
